Earlier results, collected in patent US6896870B1, “Diagnostic probes and therapeutics targeting uPA and uPAR” (Angstrom Pharmaceuticals, Inc., priority 1999, dated 2005).
Bridge positions count the residues as written; N and C are the ends. Ends that are not written are not given here.

Biological target: uPAR (Homo sapiens, UniProt Q03405)
Details: read-out: IC50, prevention of uPA binding to uPAR

Chain of uPAR (Q03405 23-305): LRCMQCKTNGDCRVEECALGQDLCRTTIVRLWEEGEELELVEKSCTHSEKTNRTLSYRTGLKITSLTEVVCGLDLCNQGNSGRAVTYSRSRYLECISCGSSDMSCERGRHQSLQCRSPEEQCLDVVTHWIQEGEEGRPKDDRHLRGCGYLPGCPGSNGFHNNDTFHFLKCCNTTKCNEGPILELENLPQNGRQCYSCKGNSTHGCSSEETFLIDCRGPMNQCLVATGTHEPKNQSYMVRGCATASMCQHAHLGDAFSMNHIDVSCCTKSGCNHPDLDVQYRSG

Row | Substance | IC50 [nM]
1 | [Ala^19]uPA(12-32) [[Ala^19]uPA(12-32) oxidized cyclic form] (DCLNGGTAVSNKYFSNIHWCN; disulfide 2-20 (inferred); UniProt P00749 32-52, looked up, variant C19A) [same peptide cyclised by intrachain disulfide bond] | 40
2 | [Ala^19]uPA(12-32) [[Ala^19]uPA(12-32) open chain form] (DCLNGGTAVSNKYFSNIHWCN; UniProt P00749 32-52, looked up, variant C19A) [uPA GFD peptide with two cysteines, the third cysteine replaced by Ala] | 100
